B1: Mesothelin 531-539 HLA-A2 peptide (peptide)
peptide: VLPLTVAEV
notes: Synthetic peptide; also called mesothelinp531; mesothelin p531
B2: MAGE-A1 278-286 HLA-A2 peptide (peptide)
peptide: KVLEYVIKV
notes: Synthetic peptide; also called MAGEA1p278; MAGE-A1 p278
B3: EphA2 883-891 HLA-A2 peptide (peptide)
peptide: TLADFDPRV
notes: Synthetic peptide; also called EphA2p883; EphA2 p883
B4: IL-13Rα2 345-352 HLA-A2 peptide (peptide)
peptide: WLPFGFILI
notes: Synthetic peptide; also called IL-13Rα2p345; IL-13Rα2 p345
B5: FOLR1 191-199 HLA-A2 peptide (peptide)
peptide: EIWTHSYKV
notes: Synthetic peptide; also called FOLR1p191; FOLR1 p191

In this assay the target is T1, HLA-A*0201 molecules on TAP-deficient T2 cells (human).
T1 construct: also called HLA-A2; T2 cells expressing HLA-A2
In words: T2 cell binding assay, fluorescence index (MFI peptide - MFI untreated)/MFI untreated.
Turning to B1, the MFI index is > 1.5.

As for B2, the MFI index was > 1.5.

As for B3, the MFI index is > 1.5.

Turning to B4, the MFI index was > 1.5.

With B5, the MFI index was < 1.

Values taken from patent US20140234351A1 (IMMUNOCELLULAR THERAPEUTICS, published 2014).
